The record followed here is paper PMC12561182, “Gal3‐CaN‐Smurf1 Complex Sequestrates FLCN‐FNIPs to Facilitate TFEB Activation in Response to Endomembrane Damage” (Advanced Science, 2025).

The test deals with T1, His-Flag-Smurf1 (UniProt Q9HCE7-2 1-731).
T1 construct: Smurf1; printed length 731 (HECT domain residues 374–731, catalytic C699); also called SMAD Specific E3 Ubiquitin Protein Ligase 1; source: E. coli, purified
Briefly: pull-down; GST pull-down: GST fusion and His-tagged partner both purified from E. coli; 4 °C overnight, washed with PBS. To be noted: both partners purified.

T1 sequence (Q9HCE7 other isoform, or with tags, fused parts or gaps): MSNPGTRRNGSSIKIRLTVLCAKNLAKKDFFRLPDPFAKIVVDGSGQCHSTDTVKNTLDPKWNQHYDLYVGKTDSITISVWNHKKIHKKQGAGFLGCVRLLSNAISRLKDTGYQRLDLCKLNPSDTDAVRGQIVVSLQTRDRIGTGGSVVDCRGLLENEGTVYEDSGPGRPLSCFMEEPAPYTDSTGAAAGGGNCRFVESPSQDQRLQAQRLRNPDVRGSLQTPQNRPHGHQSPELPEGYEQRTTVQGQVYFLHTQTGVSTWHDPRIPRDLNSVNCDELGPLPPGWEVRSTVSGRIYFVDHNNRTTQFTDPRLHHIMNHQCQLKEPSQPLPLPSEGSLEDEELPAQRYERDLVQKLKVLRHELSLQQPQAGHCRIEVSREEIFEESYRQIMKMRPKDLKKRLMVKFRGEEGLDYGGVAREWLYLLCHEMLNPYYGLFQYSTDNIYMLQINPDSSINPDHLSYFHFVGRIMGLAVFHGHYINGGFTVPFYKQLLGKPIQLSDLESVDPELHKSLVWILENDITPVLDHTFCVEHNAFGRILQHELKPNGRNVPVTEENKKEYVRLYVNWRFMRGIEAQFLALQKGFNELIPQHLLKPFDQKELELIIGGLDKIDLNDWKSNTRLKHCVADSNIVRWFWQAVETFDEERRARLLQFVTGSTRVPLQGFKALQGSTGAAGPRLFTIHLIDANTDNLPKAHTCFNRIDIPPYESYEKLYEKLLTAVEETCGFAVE

B1: GST-FLCN (natural protein, UniProt Q8NFG4 1-579, looked up)
chain: MNAIVALCHFCELHGPRTLFCTEVLHAPLPQGDGNEDSPGQGEQAEEEEGGIQMNSRMRAHSPAEGASVESSSPGPKKSDMCEGCRSLAAGHPGYISHDKETSIKYVSHQHPSHPQLFSIVRQACVRSLSCEVCPGREGPIFFGDEQHGFVFSHTFFIKDSLARGFQRWYSIITIMMDRIYLINSWPFLLGKVRGIIDELQGKALKVFEAEQFGCPQRAQRMNTAFTPFLHQRNGNAARSLTSLTSDDNLWACLHTSFAWLLKACGSRLTEKLLEGAPTEDTLVQMEKLADLEEESESWDNSEAEEEEKAPVLPESTEGRELTQGPAESSSLSGCGSWQPRKLPVFKSLRHMRQVLGAPSFRMLAWHVLMGNQVIWKSRDVDLVQSAFEVLRTMLPVGCVRIIPYSSQYEEAYRCNFLGLSPHVQIPPHVLSSEFAVIVEVHAAARSTLHPVGCEDDQSLSKYEFVVTSGSPVAADRVGPTILNKIEAALTNQNLSVDVVDQCLVCLKEEWMNKVKVLFKFTKVDSRPKEDTQKLLSILGASEEDNVKLLKFWMTGLSKTYKSHLMSTVRSPTASESRN
notes: FLCN, folliculin; source: E. coli, purified
Turning to B1, the binding result was “binds”.

B2: GST-TFEB (natural protein, UniProt P19484 1-476, looked up)
chain: MASRIGLRMQLMREQAQQEEQRERMQQQAVMHYMQQQQQQQQQQLGGPPTPAINTPVHFQSPPPVPGEVLKVQSYLENPTSYHLQQSQHQKVREYLSETYGNKFAAHISPAQGSPKPPPAASPGVRAGHVLSSSAGNSAPNSPMAMLHIGSNPERELDDVIDNIMRLDDVLGYINPEMQMPNTLPLSSSHLNVYSSDPQVTASLVGVTSSSCPADLTQKRELTDAESRALAKERQKKDNHNLIERRRRFNINDRIKELGMLIPKANDLDVRWNKGTILKASVDYIRRMQKDLQKSRELENHSRRLEMTNKQLWLRIQELEMQARVHGLPTTSPSGMNMAELAQQVVKQELPSEEGPGEALMLGAEVPDPEPLPALPPQAPLPLPTQPPSPFHHLDFSHSLSFGGREDEGPPGYPEPLAPGHGSPFPSLSKKDLDLMLLDDSLLPLASDPLLSTMSPEASKASSRRSSFSMEEGDVL
notes: TFEB, transcription factor EB; source: E. coli, purified
Turning to B2, the binding result is on record as “binds”.
